Laboratory results taken from US8901076 (Molecular Partners, dated 2014).

Target: VEGF-A165 (UniProt P15692 27-191)
Experiment: cell-based or functional assay

Sequence of VEGF-A165 (P15692 other isoform, or with tags, fused parts or gaps): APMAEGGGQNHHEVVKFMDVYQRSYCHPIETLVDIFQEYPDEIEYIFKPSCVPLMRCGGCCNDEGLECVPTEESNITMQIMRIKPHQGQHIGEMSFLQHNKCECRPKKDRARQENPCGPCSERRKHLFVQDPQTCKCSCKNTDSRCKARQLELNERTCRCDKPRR

B1: DARPin #30 (designed binder)
chain: GSDLGKKLLEAARAGQDDEVRILMANGADVNTADSTGWTPLHLAVPWGHLEIVEVLLKYGADVNAKDFQGWTPLHLAAAIGHQEIVEVLLKNGADVNAQDKFGKTAFDISIDNGNEDLAEILQKAA
With B1 the “IC50 (read off the curve); sprout length of VEGF-A165 stimulated HUVEC spheroids” value was ~0.03 nM.
